Data reported in IntAct's records for PubMed 19966800.

B1: Cytotoxicity-associated immunodominant antigen (Helicobacter pylori), P55980 (parent)
chain: MTNETIDQTRTPDQTQSQTAFDPQQFINNLQVAFIKVDNVVASFDPDQKPIVDKNDRDNRQAFDGISQLREEYSNKAIKNPTKKNQYFSDFIDKSNDLINKDNLIDVESSTKSFQKFGDQRYQIFTSWVSHQKDPSKINTRSIRNFMENIIQPPIPDDKEKAEFLKSAKQSFAGIIIGNQIRTDQKFMGVFDESLKERQEAEKNGGPTGGDWLDIFLSFIFNKKQSSDVKEAINQEPVPHVQPDIATTTTDIQGLPPEARDLLDERGNFSKFTLGDMEMLDVEGVADIDPNYKFNQLLIHNNALSSVLMGSHNGIEPEKVSLLYAGNGGFGDKHDWNATVGYKDQQGNNVATLINVHMKNGSGLVIAGGEKGINNPSFYLYKEDQLTGSQRALSQEEIRNKVDFMEFLAQNNTKLDNLSEKEKEKFQNEIEDFQKDSKAYLDALGNDRIAFVSKKDTKHSALITEFNNGDLSYTLKDYGKKADKALDREKNVTLQGSLKHDGVMFVDYSNFKYTNASKNPNKGVGATNGVSHLEAGFNKVAVFNLPDLNNLAITSFVRRNLENKLTAKGLSLQEANKLIKDFLSSNKELAGKALNFNKAVAEAKSTGNYDEVKKAQKDLEKSLRKREHLEKEVEKKLESKSGNKNKMEAKAQANSQKDEIFALINKEANRDARAIAYTQNLKGIKRELSDKLEKISKDLKDFSKSFDEFKNGKNKDFSKAEETLKALKGSVKDLGINPEWISKVENLNAALNEFKNGKNKDFSKVTQAKSDLENSVKDVIINQKVTDKVDNLNQAVSVAKAMGDFSRVEQVLADLKNFSKEQLAQQAQKNEDFNTGKNSELYQSVKNSVNKTLVGNGLSGIEATALAKNFSDIKKELNEKFKNFNNNNNGLKNSTEPIYAKVNKKKTGQVASPEEPIYTQVAKKVNAKIDRLNQIASGLGGVGQAAGFPLKRHDKVDDLSKVGLSASPEPIYATIDDLGGPFPLKRHDKVDDLSKVGRSRNQELAQKIDNLNQAVSEAKAGFFGNLEQTIDKLKDSTKKNVMNLYVESAKKVPASLSAKLDNYAINSHTRINSNIQNGAINEKATGMLTQKNPEWLKLVNDKIVAHNVGSVSLSEYDKIGFNQKNMKDYSDSFKFSTKLNNAVKDIKSGFTHFLANAFSTGYYCLARENAEHGIKNVNTKGGFQKS

Variants of: B1
Details: with mark2_human MARK2, Q7KZI7
Sequence of mark2_human MARK2, Q7KZI7 (Q7KZI7 whole entry): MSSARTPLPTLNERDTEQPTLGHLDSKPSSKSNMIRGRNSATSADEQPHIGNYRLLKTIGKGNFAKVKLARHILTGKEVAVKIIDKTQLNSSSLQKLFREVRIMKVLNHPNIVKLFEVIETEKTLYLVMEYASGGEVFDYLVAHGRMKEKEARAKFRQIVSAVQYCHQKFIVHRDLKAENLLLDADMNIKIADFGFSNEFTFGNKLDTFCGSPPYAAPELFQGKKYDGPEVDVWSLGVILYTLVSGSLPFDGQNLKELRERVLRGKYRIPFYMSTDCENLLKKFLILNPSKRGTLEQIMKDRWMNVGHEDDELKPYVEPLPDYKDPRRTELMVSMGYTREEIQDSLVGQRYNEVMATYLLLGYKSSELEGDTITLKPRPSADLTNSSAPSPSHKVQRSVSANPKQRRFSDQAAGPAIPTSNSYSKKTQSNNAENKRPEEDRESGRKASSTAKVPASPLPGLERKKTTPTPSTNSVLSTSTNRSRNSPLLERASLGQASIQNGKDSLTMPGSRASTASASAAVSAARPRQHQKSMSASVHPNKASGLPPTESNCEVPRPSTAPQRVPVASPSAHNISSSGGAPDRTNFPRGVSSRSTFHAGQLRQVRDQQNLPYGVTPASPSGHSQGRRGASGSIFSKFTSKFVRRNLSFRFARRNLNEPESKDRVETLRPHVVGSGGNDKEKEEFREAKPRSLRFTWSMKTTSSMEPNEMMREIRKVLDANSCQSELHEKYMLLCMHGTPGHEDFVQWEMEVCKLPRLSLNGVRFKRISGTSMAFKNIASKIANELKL

| Variant | effect of a mutation on the interaction |
| --- | --- |
| L959G | disrupting interaction |
| L950G | disrupting interaction |
| V956G | disrupting interaction |
| R952G | decreasing interaction |
